# Experimental data: paper doi:10.1101/2023.09.27.559698
# B1: SC1 RNA, biotinylated (structured_RNA)
# RNA: GCUGCGGUGUGGAAGGAGUGGUCGGGUUGCGCAGCG
# Legend:
# [1] = target: 53BP1 GAR(3K)-Tudor (Homo sapiens, UniProt Q12888 1288-1659, R1396K;R1398K;R1401K); test: SPR
# [2] = target: 53BP1 GAR-Tudor (Homo sapiens, UniProt Q12888 1288-1659); test: SPR
# Chain of 53BP1 GAR-Tudor (Q12888 1288-1659): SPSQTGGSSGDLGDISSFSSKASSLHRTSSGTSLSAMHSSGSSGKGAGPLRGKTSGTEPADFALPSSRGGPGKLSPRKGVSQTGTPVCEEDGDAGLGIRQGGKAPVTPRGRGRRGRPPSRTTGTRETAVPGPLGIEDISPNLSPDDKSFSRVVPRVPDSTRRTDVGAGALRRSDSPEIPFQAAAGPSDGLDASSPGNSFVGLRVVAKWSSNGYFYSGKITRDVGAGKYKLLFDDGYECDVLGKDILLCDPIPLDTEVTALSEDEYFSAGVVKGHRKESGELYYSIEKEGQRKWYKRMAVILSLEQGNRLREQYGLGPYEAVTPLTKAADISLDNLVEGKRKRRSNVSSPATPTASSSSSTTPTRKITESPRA
# Chain of 53BP1 GAR(3K)-Tudor (Q12888 1288-1659 R1396K/R1398K/R1401K): as the sequence (Q12888 1288-1659) above, with R109K, R111K, R114K counted along it
binder,measurement,setting,value
B1,binding result,[1],no binding
same,Kd,[2],~8 nM
